Experimental data from patent US20230203146A1 (Boehringer Ingelheim, published 2023).
Positions count from the first letter of the chain named. Like-named read-outs stand apart in the source and are kept apart here. Each block holds one binder with its values, some of them ahead of it.

Legend:
[1] = biological target: T1, N-terminally FLAG-tagged cynomolgus Ang2 (HEK293T conditioned medium) (cynomolgus, UniProt O15123 19-496 (human entry), limits assumed); test: competition ELISA, FLAG-cAng2 on coated cTie2-Fc
T1 construct: may be a nucleotide entry; also called cAng2; FLAG-cAng2
T1 chain: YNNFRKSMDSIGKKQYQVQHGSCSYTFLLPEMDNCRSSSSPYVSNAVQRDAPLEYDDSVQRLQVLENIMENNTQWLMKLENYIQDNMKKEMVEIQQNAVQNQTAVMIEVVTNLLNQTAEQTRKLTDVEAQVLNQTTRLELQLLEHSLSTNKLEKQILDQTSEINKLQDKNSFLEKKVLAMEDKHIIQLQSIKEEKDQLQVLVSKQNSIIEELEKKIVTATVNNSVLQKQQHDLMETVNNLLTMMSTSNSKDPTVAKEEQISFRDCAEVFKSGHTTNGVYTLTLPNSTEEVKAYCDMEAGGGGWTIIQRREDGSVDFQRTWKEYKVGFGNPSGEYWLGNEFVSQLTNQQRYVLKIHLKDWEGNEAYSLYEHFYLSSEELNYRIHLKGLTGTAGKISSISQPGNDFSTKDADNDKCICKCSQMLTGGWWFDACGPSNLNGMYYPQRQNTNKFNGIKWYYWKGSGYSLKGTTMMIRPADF
Description: (§1) In brief, 2 μg/mL of recombinant mouse Tie2-Fc or cyno Tie2-Fc is coated overnight at 4° C. in a 96-well MaxiSorp plate (Nunc, Wiesbaden, Germany). Coated wells are blocked with a 1% casein solution.

[2] = biological target: T2, FLAG-tagged recombinant human Ang1 (Alexis Biochemicals) (human, UniProt Q15389 20-498, limits assumed); test: ratio of IC50 in hAng1/hTie2 ELISA to IC50 in hAng2/hTie2 ELISA
T2 construct: Bought reagent; also called hAng1; FLAG-hAng1
T2 sequence (looked up): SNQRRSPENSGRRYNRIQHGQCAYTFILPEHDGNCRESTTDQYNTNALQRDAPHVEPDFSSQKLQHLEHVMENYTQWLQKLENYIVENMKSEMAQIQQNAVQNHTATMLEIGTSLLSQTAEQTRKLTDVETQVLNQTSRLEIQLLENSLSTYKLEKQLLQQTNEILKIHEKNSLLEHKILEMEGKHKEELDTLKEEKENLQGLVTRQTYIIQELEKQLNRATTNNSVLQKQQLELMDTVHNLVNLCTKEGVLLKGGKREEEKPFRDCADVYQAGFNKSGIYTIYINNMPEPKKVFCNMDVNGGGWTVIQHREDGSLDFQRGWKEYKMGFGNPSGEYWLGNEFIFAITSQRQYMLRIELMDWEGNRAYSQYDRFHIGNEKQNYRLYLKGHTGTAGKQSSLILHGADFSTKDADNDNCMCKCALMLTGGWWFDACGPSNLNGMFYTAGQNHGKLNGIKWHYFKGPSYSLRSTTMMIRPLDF
Description: In brief, 2 μg/mL of Tie2/Fc chimera (R&D Systems, Minneapolis, Minn., USA) is coated in a 96-well MaxiSorp plate (Nunc, Wiesbaden, Germany).
In brief, 2 μg/mL of recombinant human Tie2-Fc (R&D Systems, Minneapolis, Minn., USA) is coated overnight at 4° C. in a 96-well MaxiSorp plate (Nunc, Wiesbaden, Germany). Coated wells are blocked with a 1% casein solution.

[3] = biological target: T3, N-terminally FLAG-tagged mouse Ang2 (HEK293T conditioned medium) (mouse, UniProt O35608 19-496); test: competition ELISA, FLAG-mAng2 on coated mTie2-Fc
T3 construct: may be a nucleotide entry; also called mAng2; FLAG-mAng2
T3 sequence: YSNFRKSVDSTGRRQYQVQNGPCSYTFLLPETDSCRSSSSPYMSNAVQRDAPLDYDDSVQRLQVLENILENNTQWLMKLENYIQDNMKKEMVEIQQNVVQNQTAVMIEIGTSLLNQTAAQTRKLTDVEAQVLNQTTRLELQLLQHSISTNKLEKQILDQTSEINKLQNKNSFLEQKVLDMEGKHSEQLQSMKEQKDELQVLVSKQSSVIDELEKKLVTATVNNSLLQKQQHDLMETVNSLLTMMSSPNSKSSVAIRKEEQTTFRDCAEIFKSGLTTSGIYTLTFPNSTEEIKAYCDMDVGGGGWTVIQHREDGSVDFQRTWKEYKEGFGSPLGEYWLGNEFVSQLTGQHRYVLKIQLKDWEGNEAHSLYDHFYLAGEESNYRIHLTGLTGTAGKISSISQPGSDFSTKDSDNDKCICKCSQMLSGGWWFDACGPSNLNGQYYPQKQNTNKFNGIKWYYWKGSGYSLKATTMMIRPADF
Description: as §1

[4] = biological target: T4, recombinant cynomolgus Ang2-FLD (cynomolgus); test: SPR (Biacore T100), binder on CM5 chip, Ang2-FLD as analyte
T4 construct: domain: FLD; also called cyno Ang2-FLD
Description: (§2) In brief, VHH and benchmark compounds are immobilized on a CM5 chip via amine coupling. […] Ang2-FLD species are allowed to associate for 2 min and to dissociate for 20 min at a flow rate of 45 μL/min. In between injections, the surfaces are regenerated with a 10 sec pulse of 25 mM NaOH and 60 sec stabilization period. Association/dissociation data are evaluated by fitting a 1:1 interaction model (Langmuir binding). The affinity constant KD is calculated from resulting association and dissociation rate constants kₐ and kd and are depicted in Table 8.

[5] = biological target: T5, recombinant mouse Ang2-FLD (mouse, UniProt O35608 275-496, limits assumed); test: as above
T5 construct: domain: FLD
T5 sequence (looked up): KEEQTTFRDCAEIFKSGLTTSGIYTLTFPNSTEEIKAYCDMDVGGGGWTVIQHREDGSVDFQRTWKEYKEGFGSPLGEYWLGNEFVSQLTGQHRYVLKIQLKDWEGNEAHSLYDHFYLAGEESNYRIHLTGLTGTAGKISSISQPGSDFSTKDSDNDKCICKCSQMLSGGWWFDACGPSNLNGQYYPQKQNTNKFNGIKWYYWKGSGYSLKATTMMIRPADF
Description: as §2

[6] = biological target: T6, recombinant human Ang2-FLD (human, UniProt O15123 275-496, limits assumed); test: as above
T6 construct: domain: FLD; not used
T6 sequence (looked up): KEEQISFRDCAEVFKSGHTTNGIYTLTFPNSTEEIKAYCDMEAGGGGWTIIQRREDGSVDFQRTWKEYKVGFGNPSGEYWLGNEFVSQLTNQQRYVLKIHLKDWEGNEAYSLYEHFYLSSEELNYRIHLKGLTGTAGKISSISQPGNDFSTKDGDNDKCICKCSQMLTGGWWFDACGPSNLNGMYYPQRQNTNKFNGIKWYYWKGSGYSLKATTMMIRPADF
Description: as §2

[7] = biological target: T3, N-terminally FLAG-tagged mouse Ang2 …; test: competition ELISA, FLAG-mAng2 on coated mTie2-Fc; remark: listed apart in the source
Description: as §1

[8] = biological target: T7, FLAG-tagged cynomolgus Ang2 (cynomolgus, UniProt O15123 19-496 (human entry), limits assumed); test: competition ELISA: FLAG-cAng2 binding to coated cTie2-Fc
T7 construct: N-terminally FLAG-tagged, conditioned medium of HEK293T cells; also called cAng2; FLAG-cAng2
T7 chain: T1 chain
Description: as §1

FLAG-tagged mouse Ang2 = biological target: T8, FLAG-tagged mouse Ang2 (mouse, UniProt O35608 19-496); test: competition ELISA: FLAG-mAng2 binding to coated mTie2-Fc
T8 construct: N-terminally FLAG-tagged, conditioned medium of HEK293T cells; also called mAng2; FLAG-mAng2
T8 sequence: T3 sequence
Description: as §1

recombinant rat Ang2-FLD = biological target: T9, recombinant rat Ang2-FLD (rat, UniProt O35462 275-496, limits assumed); test: SPR (Biacore T100), VHH immobilized, Ang2-FLD injected
T9 construct: domain: FLD
T9 sequence (looked up): T5 sequence (looked up) with Q4K, I35V, V43M, G91S, Q92G, N107S, D114E, A119S, S168T

[9] = biological target: T10, recombinant human Ang2-FLD (human, UniProt O15123 275-496, limits assumed); test: as above
T10 construct: domain: FLD
T10 sequence (looked up): T6 sequence (looked up)

[10] = biological target: T11, recombinant cynomolgus Ang2-FLD (cynomolgus, UniProt A0A2K5VNX6 275-496); test: as above
T11 construct: domain: FLD; also called cyno Ang2-FLD
T11 sequence: T6 sequence (looked up) with E2G, I23V, F28L, I35V, G154A, A212G, D221G

[11] = biological target: T12, recombinant mouse Ang2-FLD (mouse, UniProt O35608 275-496, limits assumed); test: as above
T12 construct: domain: FLD
T12 sequence (looked up): T5 sequence (looked up)

B1: VHH 1D01 (VHH)
VHH: EVQLVESGGGLVQAGGSLRLSCAASGFTFDDYALGWFRQAAGKEREGVSCIRCSDGSTYYADSVKGRFTISSDNAKNTVYLQMNSLKPEDTAVYYCAASIVPRSKLEPYEYDAWGQGTQVTVSS
notes: also called 001D01; not shown: C-terminal c-myc tag and His6 tag
IC50 [1]: 16.4 nM
hAng1/hAng2 ratio [2]: > 10800
IC50 [3]: 10 nM
Kd [4]: 1.4 nM
koff [4]: 0.014 s⁻¹
kon [4]: 9.9e+06 M⁻¹ s⁻¹
Kd [5]: 4.6 nM
koff [5]: 0.015 s⁻¹
kon [5]: 3.3e+06 M⁻¹ s⁻¹
Kd [6]: 2 nM
koff [6]: 0.015 s⁻¹
kon [6]: 7.7e+06 M⁻¹ s⁻¹
IC50 [7]: 6.3 nM

B3: VHH 00956 (VHH, not shown: small tags and cut ends)
VHH: EVQLVESGGGLVQPGGSLRLSCAASGFTLDDYAIGWFRQAPGKEREGVSAIRSSGGSTYYADSVKGRFTISSDNSKNTVYLQMNSLRPEDTAVYYCAAVPAGRLRFGEQWYPLYEYDAWGQGTLVTVSS
IC50 [8]: 0.83 nM
Kd (recombinant rat Ang2-FLD): 13 nM
koff (recombinant rat Ang2-FLD): 0.0052 s⁻¹
kon (recombinant rat Ang2-FLD): 420000 M⁻¹ s⁻¹
Kd [9]: 1.2 nM
koff [9]: 0.0015 s⁻¹
kon [9]: 1.3e+06 M⁻¹ s⁻¹
Kd [10]: 0.72 nM
koff [10]: 0.0013 s⁻¹
kon [10]: 1.7e+06 M⁻¹ s⁻¹
Kd [11]: 4 nM
koff [11]: 0.0039 s⁻¹
kon [11]: 980000 M⁻¹ s⁻¹
IC50 (FLAG-tagged mouse Ang2): 2.2 nM

B6: VHH 7G08 (VHH)
VHH: EVQLVESGGGLVQPGGSLRLSCAASGFALDYYAIGWFRQVPGKEREGVSCISSSDGITYYVDSVKGRFTISRDNAKNTVYLQMNSLKPEDTAVYYCATDSGGYIDYDCMGLGYDYWGQGTQVTVSS
notes: also called 007G08; not shown: C-terminal c-myc tag and His6 tag
IC50 [1]: 0.14 nM
hAng1/hAng2 ratio [2]: > 2.33e+06
IC50 [3]: 0.07 nM
Kd [4]: 0.072 nM
koff [4]: 0.00011 s⁻¹
kon [4]: 1.5e+06 M⁻¹ s⁻¹
Kd [5]: 0.18 nM
koff [5]: 0.00014 s⁻¹
kon [5]: 810000 M⁻¹ s⁻¹
Kd [6]: 0.097 nM
koff [6]: 0.0001 s⁻¹
kon [6]: 1e+06 M⁻¹ s⁻¹
IC50 [7]: 0.09 nM

B7: VHH 37A09 (VHH)
VHH: B6 VHH with V5M, E89G
notes: also called 037A09; not shown: C-terminal c-myc tag and His6 tag
IC50 [1]: 0.2 nM
hAng1/hAng2 ratio [2]: > 100000
IC50 [3]: 0.1 nM

Continued, values first:

IC50 [8]: 0.071 nM
IC50 (FLAG-tagged mouse Ang2): 0.062 nM
B2: VHH 00933 (VHH, not shown: small tags and cut ends)
VHH: B3 VHH with F27I, S53D, S54N, F106Y, L113I
notes: Cycle 3 variant of 28D10 on the 00908 backbone

IC50 [8]: 0.069 nM
IC50 (FLAG-tagged mouse Ang2): 0.078 nM
B4: VHH 00935 (VHH, not shown: small tags and cut ends)
VHH: B3 VHH with F27I, F106Y, L113I
notes: as for B2

IC50 [8]: 0.091 nM
Kd (recombinant rat Ang2-FLD): 0.14 nM
koff (recombinant rat Ang2-FLD): 7.2e-05 s⁻¹
kon (recombinant rat Ang2-FLD): 510000 M⁻¹ s⁻¹
Kd [9]: 0.017 nM
koff [9]: 2.8e-05 s⁻¹
kon [9]: 1.6e+06 M⁻¹ s⁻¹
Kd [10]: 0.0087 nM
koff [10]: 2.2e-05 s⁻¹
kon [10]: 2.6e+06 M⁻¹ s⁻¹
Kd [11]: 0.05 nM
koff [11]: 5.6e-05 s⁻¹
kon [11]: 1.1e+06 M⁻¹ s⁻¹
IC50 (FLAG-tagged mouse Ang2): 0.055 nM
B5: VHH 00938 (VHH, not shown: small tags and cut ends)
VHH: B3 VHH with A24V, F27I, F106Y, L113I
notes: as for B2

IC50 [1]: 0.1 nM
hAng1/hAng2 ratio [2]: > 100000
IC50 [3]: 0.09 nM
B8: VHH 37F02 (VHH)
VHH: B6 VHH with V40A
notes: also called 037F02; not shown: C-terminal c-myc tag and His6 tag
